Test results published in paper PMC8247761, “BZR1 Regulates Brassinosteroid-Mediated Activation of AMT1;2 in Rice”.

T1: His:BZR1 (Oryza sativa (rice), UniProt Q7XI96 1-298)
T1 sequence: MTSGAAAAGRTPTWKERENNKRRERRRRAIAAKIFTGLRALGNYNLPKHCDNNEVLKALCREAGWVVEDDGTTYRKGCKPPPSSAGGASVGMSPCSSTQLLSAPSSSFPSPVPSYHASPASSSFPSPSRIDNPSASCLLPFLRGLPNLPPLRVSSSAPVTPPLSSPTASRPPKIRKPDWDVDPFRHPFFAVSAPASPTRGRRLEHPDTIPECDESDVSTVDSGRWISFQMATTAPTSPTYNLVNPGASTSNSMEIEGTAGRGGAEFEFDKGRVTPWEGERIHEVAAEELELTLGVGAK

B1: probe B (BRRE B, AMT1;2 promoter P4) (dsDNA)
DNA 1: TGGTCGCATCGTCGTGCGTGAGCTGCCTATCG
DNA 2: CGATAGGCAGCTCACGCACGACGATGCGACCA
B2: probe A (BRRE A, AMT1;2 promoter P4) (dsDNA)
DNA 1: GTCTCACCGGGCTGCGTGCGTACGCCGATA
DNA 2: TATCGGCGTACGCACGCAGCCCGGTGAGAC

Experiments:
His:BZR1 [1] = target: T1, His:BZR1; assay: EMSA; stronger than probe A; EMSA: 1 ug His:BZR1, 40k cpm 32P-labeled probe; buffer, salt, pH and temperature not given (protocol of Je et al., 2010); details: protein: recombinant; tags: His (pET28a(+)); chain copies: 2; label: 32P; blunt
His:BZR1 [2] = target: T1, His:BZR1; assay: EMSA; slightly weaker than probe B; EMSA: 1 ug His:BZR1, 40k cpm 32P-labeled probe; buffer, salt, pH and temperature not given (protocol of Je et al., 2010); details: protein: recombinant; tags: His (pET28a(+)); chain copies: 2; label: 32P; blunt

| Binder | binding result (His:BZR1 [1]) | binding result (His:BZR1 [2]) |
| --- | --- | --- |
| B1 | binds | – |
| B2 | – | binds |
